The data set addresses HP1α (mouse) (UniProt Q61686). Kind of data set: BLI. As to conditions: K+, BLI: 100 mM KCl, 50 mM NaCl, 20 mM Na phosphate, pH 8 (G4) or pH 7 (i-motif, dsDNA), room temp, 500 nM oligo or titration, EMSA: 50 mM Tris-HCl pH 7.5, 100 mM ….

Results on three substances are retold here after article PMC6954420.

Chain of HP1α (mouse) (Q61686 whole entry): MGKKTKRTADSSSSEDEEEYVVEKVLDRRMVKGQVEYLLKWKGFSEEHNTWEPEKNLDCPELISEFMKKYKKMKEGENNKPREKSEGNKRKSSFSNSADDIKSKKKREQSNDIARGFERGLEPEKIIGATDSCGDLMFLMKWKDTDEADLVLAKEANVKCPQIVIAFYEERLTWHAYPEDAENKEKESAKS

One may read the Kd as the free concentration of one partner at which half of the binding sites on the other are occupied at equilibrium, for simple one-to-one binding. In turn, TERRA96 gave a Kd of 2.5 nM.

Regarding TERRA22, the dissociation constant (Kd) is 940 nM.

On to TERRA45, for which, for the setting “Fig S2 gives error 0.4”, the Kd was 74.4 nM.
